Assay results taken from the supplement of paper PMC7125110.
± gives the standard error. For some of these results: Fewer inactive variants are shown than the library holds.

B1: glmS ribozyme (parent)
chain: AUAAAAGCGCCAGAACUACAGAAAUGUAGUUGACGAGGAGGAGGUUUAUCGAAUUUUCGGCGGAUGCCUCCAAA

Key:
Conditions in all cases: with glucosamine-6-phosphate
[1] = variants of: B1; experiment: kcat; higher = faster cleavage; RNA array
In short: (§1)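 Barcoded ribozyme variants, transcribed in situ by E. coli RNA polymerase on sequenced MiSeq chips, were followed via a hybridised Cy3 probe at 37 °C. Glucosamine-6-phosphate ranged from 40 μM to 10 mM in HEPES/KCl/Mg(OAc)2 buffer. kobs came from decay fits to per-tile medians, and kcat and KM from weighted Michaelis–Menten fits.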

[2] = variants of: B1; experiment: self-cleavage kobs at 40 uM GlcN6P; higher = faster cleavage; RNA array
In short: as §1

[3] = variants of: B1; experiment: self-cleavage kobs at 2500 uM GlcN6P; higher = faster cleavage; RNA array
In short: as §1

[4] = variants of: B1; experiment: self-cleavage kobs at 160 uM GlcN6P; higher = faster cleavage; RNA array
In short: as §1

[5] = variants of: B1; experiment: self-cleavage kobs at 640 uM GlcN6P; higher = faster cleavage; RNA array
In short: as §1

[6] = variants of: B1; experiment: KM; higher = weaker cofactor use; RNA array
In short: as §1

[7] = variants of: B1; experiment: self-cleavage kobs at 10000 uM GlcN6P; higher = faster cleavage; RNA array
In short: as §1

Variant | kcat [1] [s⁻¹] | self-cleavage kobs at 40 uM GlcN6P [2] [s⁻¹] | self-cleavage kobs at 2500 uM GlcN6P [3] [s⁻¹] | self-cleavage kobs at 160 uM GlcN6P [4] [s⁻¹] | self-cleavage kobs at 640 uM GlcN6P [5] [s⁻¹] | KM [6] [µM] | self-cleavage kobs at 10000 uM GlcN6P [7] [s⁻¹]
U31A C68A | 2.86e-05 ± 9.3e-06 | < 1e-05 | 4.06e-05 ± 1.6e-05 |  |  |  | 
C10U U30G | < 1e-05 | < 1e-05 |  | < 1e-05 | < 1e-05 |  | 
A15U U45A | 0.0179 ± 0.0054 | 0.000298 ± 4.7e-05 | 0.00648 ± 0.0023 | 0.000772 ± 0.00017 | 0.00219 ± 0.00059 | 3230 ± 1300 | 0.0145 ± 0.0023
A53C A64G | 0.00338 ± 0.00072 | 7.76e-05 ± 1.7e-05 | 0.00249 ± 0.0011 | 0.000218 ± 9.8e-05 | 0.00177 ± 0.00058 | 1710 ± 540 | 0.00277 ± 0.00054
A15C G43A | < 1e-05 | < 1e-05 |  | < 1e-05 | < 1e-05 |  | 
U69A C70A | 3.8e-05 ± 4.6e-06 |  | 4.37e-05 ± 1.1e-05 |  |  |  | 3.27e-05 ± 9.4e-06
A12U A33C | 0.00204 ± 0.00049 |  | 0.000501 ± 9.3e-05 | 2.87e-05 ± 1.3e-05 | 0.000178 ± 3.4e-05 | 7810 ± 2600 | 0.00113 ± 0.00019
U46A A64C | 4.04e-05 ± 4.1e-06 | < 1e-05 |  |  |  |  | 
A15G G59U C67U | 5.74e-05 ± 6.3e-06 |  |  |  |  | 2230 ± 1000 | 4.69e-05 ± 1.5e-05
U57A U69G | 4.58e-05 ± 6.6e-06 |  | 3.88e-05 ± 1.3e-05 | 3.35e-05 ± 1.6e-05 | 5.15e-05 ± 1.3e-05 |  | 
G41C C70U | 0.000551 ± 0.00016 | 4.81e-05 ± 7.7e-06 | 0.000498 ± 6.2e-05 | 9.61e-05 ± 2.4e-05 | 0.000173 ± 2.2e-05 |  | 0.000516 ± 5.8e-05
G51U A52G | < 1e-05 | < 1e-05 | < 1e-05 |  | < 1e-05 |  | 
G13C A42G | 0.00017 ± 1.8e-05 | < 1e-05 | 6.19e-05 ± 1.3e-05 |  | 3.16e-05 ± 1.6e-05 | 4030 ± 920 | 0.000123 ± 1.8e-05
G43U U55A | 2.33e-05 ± 3.8e-07 |  |  | < 1e-05 |  | 1170 ± 67 | 
U49C C50G | < 1e-05 | < 1e-05 |  | < 1e-05 |  |  | < 1e-05
A33G C68A | 1.39e-05 ± 1.5e-06 |  |  |  |  |  | 
G7A | 4.39e-05 ± 1.2e-06 |  | 1.71e-05 ± 2.6e-06 |  |  | 4040 ± 350 | 3.13e-05 ± 1.1e-06

Variant | kcat [1] [s⁻¹] | self-cleavage kobs at 40 uM GlcN6P [2] [s⁻¹] | self-cleavage kobs at 2500 uM GlcN6P [3] [s⁻¹] | self-cleavage kobs at 160 uM GlcN6P [4] [s⁻¹] | self-cleavage kobs at 640 uM GlcN6P [5] [s⁻¹] | KM [6] [µM] | self-cleavage kobs at 10000 uM GlcN6P [7] [s⁻¹]
U56G G66U | 0.000858 ± 0.00012 | 3.12e-05 ± 8.7e-06 | 0.000576 ± 5.7e-05 | 6.25e-05 ± 7.4e-06 | 0.000237 ± 2.4e-05 | 1780 ± 400 | 0.000682 ± 6.4e-05
C16U U55C C70U | 0.000581 ± 5.6e-05 |  | 0.000261 ± 7.6e-05 |  | 0.000125 ± 2.7e-05 | 2450 ± 440 | 0.000482 ± 9.6e-05
A6U A36C G38A A52U | 1.37e-05 ± 2.9e-06 |  |  |  | < 1e-05 |  | < 1e-05
A12G U57C | 1.17e-05 ± 1.7e-06 | < 1e-05 |  |  |  |  | 
U56G A64C | 7.21e-05 ± 4.9e-06 |  | 3.92e-05 ± 1.5e-05 | < 1e-05 | 2.44e-05 ± 1.1e-05 | 1500 ± 420 | 6.35e-05 ± 8.6e-06
C10U C11U | 3.12e-05 ± 1.5e-05 | < 1e-05 |  | < 1e-05 |  |  | 
C11U A39C | 0.000759 ± 0.00011 |  | 0.000299 ± 5e-05 |  | 8.75e-05 ± 1.3e-05 | 4650 ± 1100 | 0.00051 ± 5.5e-05
C11U A39U | 0.00145 ± 0.00027 |  | 0.000641 ± 0.00011 | 4.38e-05 ± 1.1e-05 | 0.000277 ± 4.8e-05 | 3780 ± 1200 | 0.00102 ± 0.00011
U31C A53G | 0.00573 ± 0.0015 | 0.000158 ± 1.8e-05 | 0.00309 ± 0.00042 | 0.000305 ± 5.6e-05 | 0.00167 ± 0.00042 | 1960 ± 740 | 0.00495 ± 0.00059
A14G G29C | 0.000331 ± 6.9e-05 |  | 0.000253 ± 2.6e-05 | 6.33e-05 ± 1.1e-05 | 9.55e-05 ± 8.8e-06 | 1330 ± 540 | 0.00028 ± 2.9e-05
G40U C67U | 7.51e-05 ± 5.3e-06 | < 1e-05 | 4.31e-05 ± 8.2e-06 |  | 2.67e-05 ± 8.3e-06 | 1470 ± 410 | 6.64e-05 ± 6e-06
G40U U47C | 0.00133 ± 0.00022 | 3.24e-05 ± 8.9e-06 | 0.000958 ± 0.00014 | 0.000104 ± 2.3e-05 | 0.000287 ± 3.6e-05 | 2010 ± 550 | 0.00106 ± 0.00013
C10U A53U G59C C68G | < 1e-05 | < 1e-05 |  |  |  |  | 
U30A C58U | 1.78e-05 ± 3.6e-06 |  |  |  |  |  | 
G38A U49A | < 1e-05 | < 1e-05 |  |  |  |  | < 1e-05
G13U G29A | 0.000411 ± 4.9e-05 |  | 0.000121 ± 2.2e-05 |  | 3.19e-05 ± 1.3e-05 | 6480 ± 1300 | 0.000246 ± 4.2e-05
